# Measurements published in article PMC4663749, “Structure of Mycobacterium thermoresistibile GlgE defines novel conformational states that contribute to the catalytic mechanism” (Scientific Reports, 2015).
# Target: the molecule itself
# Assay: crystal structure; three structures of GlgE (apo form, maltose co-crystallization, maltose-1P co-crystallization); sitting-drop vapour diffusion at 291 K, ~7 mg/ml protein; one dimer per asymmetric unit
protein,measurement,value
"Mycobacterium thermoresistibile GlgE (enzyme, UniProt G7CL00 1-696, looked up, GlgE (alpha-1,4-glucan:maltose-1-phosphate maltosyltransferase) of Mycobacterium thermoresistibile DSM 44167; glgE gene amplified from chromosomal DNA with a forward primer that begins at the GTG start codon and a reverse primer that ends at the stop codon; The construct with the cleavable N-terminal SUMO tag gave all crystals; also called maltosyl transferase; source: E. coli BL21(DE3), purified …) MAGRIVIDDVQPVVSNGRYPAKAVVGEVVPVAATVWREGHDAVAATLVVRYHGTTYPDLADPPPGVPGADRTAVPIGDVMTPAAPVKPQRLPMSPGHTPDVFHGHFTPDRVGLWTYRVDGWGDPIASWRHNVTAKLDAGQGESELNNDLLVGARLLERAATGVPRELREALLEAAAALRAPGDPFTRAGAALSAEVSDLLAEYPLREFVTRGEQYGVWVDRPEARFSSWYEMFPRSTGGWDAEGRPVHGTFATAAEALPRIARMGFDVVYLPPIHPIGKVHRKGRNNSVTAAPGDVGSPWAIGSDEGGHDAVHPQLGTIEDFDEFVASARDLGLEVALDLALQCAPDHPWAREHPEWFTVLPDGSIAYAENPPKKYQDIYPLNFDNDPAGIYQEVLRVVRFWISHGVNIFRVDNPHTKPPNFWAWLIGQIKNENPDVLFLSEAFTRPARLYGLAKLGFTQSYTYFTWRTSKWELTEFGQEIAAKADIARPNLFVNTPDILHESLQHGGPGMFAIRAVLAATMGPAWGVYSGYELFENQPVRPGSEEYLNSEKYELRPRDFESALARGESLEPFLTRLNEIRRLHPALRELRTIRFHHVDNDALLAYSKFDPGTGDTVLVVVTLNPFGAEEATLWLDMPELGMEPYDRFWVRDEITGEEYQWGQANYVRLDPAKAVAHVLNMPLIPADKRLQLLRRE",stoichiometry N,2
